# Reference: IntAct's records for PubMed 22885598
# B1: Autophagy-related protein 13 (Saccharomyces cerevisiae), Q06628 (parent)
# chain: MVAEEDIEKQVLQLIDSFFLKTTLLICSTESSRYQSSTENIFLFDDTWFEDHSELVSELPEIISKWSHYDGRKELPPLVVETYLDLRQLNSSHLVRLKDHEGHLWNVCKGTKKQEIVMERWLIELDNSSPTFKSYSEDETDVNELSKQLVLLFRYLLTLIQLLPTTELYQLLIKSYNGPQNEGSSNPITSTGPLVSIRTCVLDGSKPILSKGRIGLSKPIINTYSNALNESNLPAHLDQKKITPVWTKFGLLRVSVSYRRDWKFEINNTNDELFSARHASVSHNSQGPQNQPEQEGQSDQDIGKRQPQFQQQQQPQQQQQQQQQQQRQHQVQTQQQRQIPDRRSLSLSPCTRANSFEPQSWQKKVYPISRPVQPFKVGSIGSQSASRNPSNSSFFNQPPVHRPSMSSNYGPQMNIEGTSVGSTSKYSSSFGNIRRHSSVKTTENAEKVSKAVKSPLQPQESQEDLMDFVKLLEEKPDLTIKKTSGNNPPNINISDSLIRYQNLKPSNDLLSEDLSVSLSMDPNHTYHRGRSDSHSPLPSISPSMHYGSLNSRMSQGANASHLIARGGGNSSTSALNSRRNSLDKSSNKQGMSGLPPIFGGESTSYHHDNKIQKYNQLGVEEDDDDENDRLLNQMGNSATKFKSSISPRSIDSISSSFIKSRIPIRQPYHYSQPTTAPFQAQAKFHKPANKLIDNGNRSNSNNNNHNGNDAVGVMHNDEDDQDDDLVFFMSDMNLSKEG
# partner: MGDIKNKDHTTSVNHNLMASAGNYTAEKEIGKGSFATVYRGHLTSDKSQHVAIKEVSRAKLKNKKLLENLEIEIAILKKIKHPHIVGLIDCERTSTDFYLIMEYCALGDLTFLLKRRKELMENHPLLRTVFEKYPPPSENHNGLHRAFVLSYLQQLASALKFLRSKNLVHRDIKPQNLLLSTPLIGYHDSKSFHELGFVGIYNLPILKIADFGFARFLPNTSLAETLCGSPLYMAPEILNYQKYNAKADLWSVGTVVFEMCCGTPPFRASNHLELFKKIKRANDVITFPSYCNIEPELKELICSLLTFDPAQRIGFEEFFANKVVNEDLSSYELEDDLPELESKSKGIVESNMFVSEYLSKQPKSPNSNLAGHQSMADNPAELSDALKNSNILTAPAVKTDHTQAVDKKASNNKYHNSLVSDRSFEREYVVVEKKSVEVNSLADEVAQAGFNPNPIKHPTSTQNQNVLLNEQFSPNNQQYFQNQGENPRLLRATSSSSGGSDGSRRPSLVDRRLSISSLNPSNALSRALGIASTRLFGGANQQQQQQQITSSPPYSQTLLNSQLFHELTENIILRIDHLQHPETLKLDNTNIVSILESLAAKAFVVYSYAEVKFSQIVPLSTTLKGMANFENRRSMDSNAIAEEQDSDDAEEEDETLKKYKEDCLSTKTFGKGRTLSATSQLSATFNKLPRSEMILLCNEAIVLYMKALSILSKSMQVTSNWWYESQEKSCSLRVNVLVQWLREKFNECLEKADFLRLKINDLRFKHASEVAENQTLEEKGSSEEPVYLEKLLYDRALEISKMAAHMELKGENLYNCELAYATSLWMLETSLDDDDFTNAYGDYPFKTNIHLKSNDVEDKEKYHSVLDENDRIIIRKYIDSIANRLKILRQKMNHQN
# Variants of: B1
# Settings: with atg1_yeast ATG1, P53104
row,effect of a mutation on the interaction,Variant
1,disrupting interaction,V469A
2,disrupting interaction,F468A

# Variants of: B1
# Settings: with atg1_yeast ATG1, P53104
# Remark: another data set of the same source
row,effect of a mutation on the interaction,Variant
1,decreasing interaction,F468A
